In the RNAGym collection of RNA variant scans (doi:10.1093/nar/gkz1192):

B1: CPEB3 Ribozyme (parent)
chain: UAACAGGGGGCCACAGCAGAAGCGUUCACGUCGCAGCCCCUGUCAGAUUCUGGUGAAUCUGCGAAUUCUGCUGUAUAUCUC

Variants of: B1
Assay: self-cleavage, relative activity (ratio to wild type); higher = more cleavage; in vitro, sequencing
Procedure, shortened: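 Relative activity was defined as the cleaved/total read fraction for a variant divided by the same fraction for the unmutated ribozyme. CPEB3 self-cleaving ribozyme libraries were made by rounds of error-prone PCR, barcoded, and transcribed in vitro with T7 RNA polymerase for 5 hours at 37°C, and cleavage ran through transcription plus a 15 min DNase I step before EDTA. Illumina sequencing of template-switched reverse transcripts gave the reads, and DNA sequencing mapped the barcodes. Averages come from three batches, using variants with at least 5 reads.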

| Variant | self-cleavage |
| --- | --- |
| UAACAGGGGGCCACAGCAGAAGCGUUCACGUCGCAGCCCCUGUCAGAUUCUGGUGAAUCUGCGACCUCUGCUGUAUAUCUC [A65C U66C] | 0.11 |
| UAACAGGGGGCCACAGCAGAAGCGUUCACGUCGCAGCCCCUGUCAGAUUCUGGUGAAUCUGCGUAUUCUUCUGUAUAUCUC [A64U G70U] | 0.26 |
| UAACAGGGGGCCACAGCAGAAGCGUUCACGUCGCAGCCCCUGUCAGAUUCUGGUGAAUCUGCGACUUCUGCUGUAUGUCUC [A65C A77G] | 0.19 |
| UAACAGGGGGCCACAGCAGAAGCGUUCACGUCGCAGCCCCUGUCAGAUUCUGGUGAAUCUGCGAGUUCUGCUGUAUAUCUA [A65G C81A] | 0.48 |
| UAACAGGGGGCCACAGCAGAAGCGUUCACGUCGCAGCCCCUGUCAGAUUCUGGUGAAUCUGCGAGUUCUGCUGUAUAUCUU [A65G C81U] | 0.63 |
| UAACAGGGGGCCACAGCAGAAGCGUUCACGUCGCAGCCCCUGUCAGAUUCUGGUGAAUCUGCGAGUUCUGCUGUAAAUCUC [A65G U76A] | 0.48 |
| UAACAGGGGGCCACAGCAGAAGCGUUCACGUCGCAGCCCCUGUCAGAUUCUGGUGAAUCUGCGAGUUCUGCUGUACAUCUC [A65G U76C] | 0.53 |
| UAACAGGGGGCCACAGCAGAAGCGUUCACGUCGCAGCCCCUGUCAGAUUCUGGUGAAUCUGCGAGUUCUGCUGUAGAUCUC [A65G U76G] | 0.53 |
| UAACAGGGGGCCACAGCAGAAGCGUUCACGUCGCAGCCCCUGUCAGAUUCUGGUGAAUCUGCGUAUUCUGCUGUAUACCUC [A64U U78C] | 0.31 |
| UAACAGGGGGCCACAGCAGAAGCGUUCACGUCGCAGCCCCUGUCAGAUUCUGGUGAAUCUGCGUAUUCUGCUGUAUAGCUC [A64U U78G] | 0.35 |
| UAACAGGGGGCCACAGCAGAAGCGUUCACGUCGCAGCCCCUGUCAGAUUCUGGUGAAUCUGCGUAUUCUGCUGUAUAACUC [A64U U78A] | 0.49 |
| UAACAGGGGGCCACAGCAGAAGCGUUCACGUCGCAGCCCCUGUCAGAUUCUGGUGAAUCUGCGACUUCUGCUGUAUAUCUA [A65C C81A] | 0.5 |
| UAACAGGGGGCCACAGCAGAAGCGUUCACGUCGCAGCCCCUGUCAGAUUCUGGUGAAUCUGCGAGUUCUGCUGUAUAUGUC [A65G C79G] | 0.74 |
| UAACAGGGGGCCACAGCAGAAGCGUUCACGUCGCAGCCCCUGUCAGAUUCUGGUGAAUCUGCGAGUUCUGCUGUAUAUAUC [A65G C79A] | 0.67 |
| UAACAGGGGGCCACAGCAGAAGCGUUCACGUCGCAGCCCCUGUCAGAUUCUGGUGAAUCUGCGACUUCUGCUGUAUAUCCC [A65C U80C] | 0.53 |
| UAACAGGGGGCCACAGCAGAAGCGUUCACGUCGCAGCCCCUGUCAGAUUCUGGUGAAUCUGCGUAUUCUGCUGUAUAUCCC [A64U U80C] | 0.45 |
| UAACAGGGGGCCACAGCAGAAGCGUUCACGUCGCAGCCCCUGUCAGAUUCUGGUGAAUCUGCGUAUUCUGCUGUAUAUCAC [A64U U80A] | 0.37 |

| Variant | self-cleavage |
| --- | --- |
| UAACAGGGGGCCACAGCAGAAGCGUUCACGUCGCAGCCCCUGUCAGAUUCUGGUGAAUCUGCGAGUUCUACUGUAUAUCUC [A65G G70A] | 0.32 |
| UAACAGGGGGCCACAGCAGAAGCGUUCACGUCGCAGCCCCUGUCAGAUUCUGGUGAAUCUGCGACUUCUGCUGUAUACCUC [A65C U78C] | 0.15 |
| UAACAGGGGGCCACAGCAGAAGCGUUCACGUCGCAGCCCCUGUCAGAUUCUGGUGAAUCUGCGAGUUCUGCAGUAUAUCUC [A65G U72A] | 0.4 |
| UAACAGGGGGCCACAGCAGAAGCGUUCACGUCGCAGCCCCUGUCAGAUUCUGGUGAAUCUGCGAGUUCUGCGGUAUAUCUC [A65G U72G] | 0.4 |
| UAACAGGGGGCCACAGCAGAAGCGUUCACGUCGCAGCCCCUGUCAGAUUCUGGUGAAUCUGCGAGUUCUGCCGUAUAUCUC [A65G U72C] | 0.52 |
| UAACAGGGGGCCACAGCAGAAGCGUUCACGUCGCAGCCCCUGUCAGAUUCUGGUGAAUCUGCGACUUCUGCUGUAUAUGUC [A65C C79G] | 0.14 |
| UAACAGGGGGCCACAGCAGAAGCGUUCACGUCGCAGCCCCUGUCAGAUUCUGGUGAAUCUGCGUAUUCUGCAGUAUAUCUC [A64U U72A] | 0.35 |
| UAACAGGGGGCCACAGCAGAAGCGUUCACGUCGCAGCCCCUGUCAGAUUCUGGUGAAUCUGCGUAUUCUGCCGUAUAUCUC [A64U U72C] | 0.5 |
| UAACAGGGGGCCACAGCAGAAGCGUUCACGUCGCAGCCCCUGUCAGAUUCUGGUGAAUCUGCGUAUUCUGCGGUAUAUCUC [A64U U72G] | 0.37 |
| UAACAGGGGGCCACAGCAGAAGCGUUCACGUCGCAGCCCCUGUCAGAUUCUGGUGAAUCUGCGAGUUCUGCUGUAUAACUC [A65G U78A] | 0.6 |
| UAACAGGGGGCCACAGCAGAAGCGUUCACGUCGCAGCCCCUGUCAGAUUCUGGUGAAUCUGCGAGUUCUGCUGUAUACCUC [A65G U78C] | 0.42 |
| UAACAGGGGGCCACAGCAGAAGCGUUCACGUCGCAGCCCCUGUCAGAUUCUGGUGAAUCUGCGAGUUCAGCUGUAUAUCUC [A65G U69A] | 0.33 |
| UAACAGGGGGCCACAGCAGAAGCGUUCACGUCGCAGCCCCUGUCAGAUUCUGGUGAAUCUGCGAGUUCCGCUGUAUAUCUC [A65G U69C] | 0.34 |
| UAACAGGGGGCCACAGCAGAAGCGUUCACGUCGCAGCCCCUGUCAGAUUCUGGUGAAUCUGCGUAUACUGCUGUAUAUCUC [A64U U67A] | 0.29 |
| UAACAGGGGGCCACAGCAGAAGCGUUCACGUCGCAGCCCCUGUCAGAUUCUGGUGAAUCUGCGUAUCCUGCUGUAUAUCUC [A64U U67C] | 0.32 |
| UAACAGGGGGCCACAGCAGAAGCGUUCACGUCGCAGCCCCUGUCAGAUUCUGGUGAAUCUGCGACUUCUGCUGUAUAUCUC [A65C] | 0.29 |
| UAACAGGGGGCCACAGCAGAAGCGUUCACGUCGCAGCCCCUGUCAGAUUCUGGUGAAUCUGCGAGUUCUGCUGUAUAUCUC [A65G] | 0.52 |
